Experimental data: article PMC7041945, “Misfolded proteins bind and activate death receptor 5 to trigger apoptosis during unresolved endoplasmic reticulum stress” (eLife, 2020)

Experiments:
Assay type in all cases: cell-based, Homo sapiens
[1] = system: caspase 8 in HCT116 GFP-Trap immunoprecipitates; experiment: Caspase 8 activity (caspase glo 8) of GFP immunoprecipitates (beads)
Procedure: 15 cm dishes were seeded with 4 million HCT116 cells and allowed to recover for 18 hr prior to transfection. Samples were then transfected for 24 hr with the GFP-tagged ER trafficked protein, cytosolic GFP, or empty vector. To harvest apoptotic and living cells for each sample, all media and washes were collected. Cells were scraped in 2 ml of cold PBS and combined with the media and washes. Samples were centrifuged to pellet cells, washed with 1 ml cold PBS, and flash frozen in liquid N2 prior to lysis.
The cell pellets were resuspended in 750 μl of 30 mM HEPES pH 7.2, 150 mM NaCl, 1% Triton X-100 with 1x Roche protease inhibitor cocktail (if used subsequently for caspase glo 8 assay) or with 5x Roche protease inhibitor cocktail (if used for immunoblotting). The cells were lysed by mechanical shearing through a 25G needle for 13–15 plunges followed by incubation on ice for 30 min. The lysate was centrifuged at 2000xg for 5 min to remove debris and then incubated with 30 μl of GFP-Trap magnetic agarose beads (Chromotek gtma-20) for 4 hr at 4°C. The beads were then washed with 750 μl of lysis buffer for 10 min at 4°C for three rounds.
For measuring caspase activity, a fifth of the beads was resuspended in 40 μl of 30 mM HEPES pH 7.2, 150 mM NaCl, 1% Triton X-100. 10 μl of the resuspended mixture was incubated with 10 ul of the caspase glo 8 luminogenic substrate (Promega #PRG8200) for 45 min at RT before measuring luminescence.

[2] = system: DR5 / ERGIC53 / giantin in HCT116 cells; experiment: Immunofluorescence co-localization (Pearson's correlation per cell)
Procedure: HCT116 were seeded at 25000 cells per well in an 8-well glass-bottom μSlide (Ibidi 80827) pre-coated with Collagen IV (Sigma-Aldrich C6745, 0.03 mg/ml in PBS incubated for 30 min at RT, and then rinsed off with PBS x 3) in growth media 18 hr prior to transfection (see above for protocol). 24 hr post-transfection, the cells were fixed using 4% paraformaldehyde (PFA, Electron Microscopy Sciences) or methanol, depending on the antibody combination used for immunostaining (see table below). Samples were protected from light after fixation to preserve GFP fluorescence.
For fixation with 4% PFA, 32% PFA was added directly to the well in growth media for a 1:8 dilution and incubated for 10–15 min at RT. Cells were then permeabilized with PHEM buffer (60 mM PIPES, 25 mM HEPES, 10 mM EGTA, 2 mM MgCl2-hexahydrate, pH 6.9) containing 0.1% Triton-X100 for 10 min at RT for three washes.
For fixation with methanol, media was removed and cells were washed with cold PBS. Then methanol (pre-cooled at −20°C) was added to the well and incubated at −20°C for 3–4 min. The methanol was promptly aspirated and replaced with PHEM buffer (without Triton X-100), followed by two more 10 min washes with PHEM at RT.
To block against non-specific antibody interactions, cells were rinsed in PHEM (without 0.1% Triton X-100) and then incubated with PHEM containing 2% normal goat serum (Jackson Immunoresearch Laboratories, 005-000-121) for 1 hr at RT. Primary antibodies were incubated in blocking solution overnight at 4°C at the dilution noted in the table above. […]
From the 405 nm channel, cell nuclei were identified as primary objects using maximum correlation thresholding (MCT) and shape to distinguish clumped objects. […] For overlap between DR5 and MPZ/RHO-GFP, Pearson’s correlation coefficients were calculated within the MPZ/RHO mask for each cell to filter out untransfected cells. For overlap between DR5/MPZ and organelle markers, Pearson’s correlation coefficients were calculated within tertiary objects for the organelle marker in GFP+ cells. […]

DR5 = DR5 immunoprecipitation (blotted for DR5, MPZ-GFP, FADD); details: HCT116 transfected with MPZ-GFP
Procedure: IP for DR5 was performed as previously described in [Lu et al. (2014)], using anti-DR5 mAb 5C7-conjugated agarose beads gifted by David Lawrence of the Ashkenazi lab at Genentech Inc.

[3] = system: GADD34 mRNA in HCT116 cells; experiment: qPCR of GADD34 transcript; details: norm to GAPDH
[4] = MPZ-positive cells, N > 55, 24 hr, mean

Molecule | average fold change in caspase 8 activity relative to empty ([1]; GFP IP beads, run 2019-02-05) [fold] | average fold change (relative to empty average) ([1]; GFP beads, dilution 0.0666667, average of rep1-rep3) | fold change in caspase 8 activity, Mean ± SEM (unpaired t test) ([1]; GFP beads, n=3) | average fold change in caspase 8 activity relative to empty ([1]; GFP beads, sheet 2018-02-11 (compiled as Rep 2019-02-11)) [fold] | fold change in caspase 8 activity, average of averages ([1]; GFP beads, three runs compiled) [fold] | caspase 8 activity of immunoprecipitates compared to empty beads ([1]; MPZ-GFP immunoprecipitates, 24 hr post-transfection) | Pearson's correlation per cell between DR5 and ERGIC53 [2, 4] | Pearson's correlation per cell between DR5 and giantin [2, 4] | overlap (mean Pearson's correlation) with DR5 signal ([2]; versus 90° rotated images, 24 hr) | DR5 pull-down (DR5) | avg. fold induction, GADD34 ([3]; HCT116, 62 ng) | avg. fold induction, GADD34 ([3]; HCT116, 125 ng) | avg. fold induction, GADD34 ([3]; HCT116, 250 ng) | avg. fold induction, GADD34 ([3]; HCT116, 500 ng)
MPZ-GFP: myelin protein zero with a C-terminal monomeric EGFP, expressed from plasmid (protein, left off: monomeric EGFP, C-terminal, kept, myelin protein zero with a C-terminal monomeric EGFP, expressed from plasmid) IVVYTDREVHGAVGSRVTLHCSFWSSEWVSDDISFTWRYQPEGGRDAISIFHYAKGQPYIDEVGTFKERIQWVGDPRWKDGSIVIHNLDYSDNGTFTCDVKNPPDIVGKTSQVTLYVFEKVPTRYGVVLGAVIGGVLGVVLLLLLLFYVVRYCWLRRQAALQRRLSAMEKGKLHKPGKDASKRGRQTPVLYAMLDHSRSTKAVSEKKAKGLGESRKDKK | 2.174 | 3.5 | 2.621 ± 0.4397, n=3 fold | 3.5 | 2.621 | 2–3 fold | 0.61 ± 0.03 | 0.14 ± 0.02 | statistically significant overlap with DR5 signal | enriched for FADD and MPZ-GFP |  |  |  | 
pRK CHOP (protein, UniProt P35638 1-169, looked up, expression plasmid) DNA damage-inducible …: MAAESLPFSFGTLSSWELEAWYEDLQEVLSSDENGGTYVSPPGNEEEESKIFTTLDPASLAWLTEEEPEPAEVTSTSQSPHSPDSSQSSLAQEEEEEDQGRTRKRKQSGHSPARAGKQRMKEKEQENERKVAQLAEENERLKQEIERLTREVEATRRALIDRMVNLHQA |  |  |  |  |  |  |  |  |  |  | 1.117 | 1.442 | 1.579 | 2.1696
